Values quoted from earlier work as cited in patent US9770419B2, “Methods and compositions of camel derived products” (priority 2012, dated 2017).

Tests used:
HCV (genotype 4a) = conditions: compared with human, bovine and sheep lactoferrin
[1] = tested on: colon cancer cell line, HCT-116; conditions: in vitro

B1: Camel Lactoferrin: iron containing protein, molecular mass 76-80 kDa, 689 amino acids residues, isolated from camel milk (protein, UniProt Q9TUM0 20-708, looked up)
Lactotransferrin: ASKKSVRWCTTSPAESSKCAQWQRRMKKVRGPSVTCVKKTSRFECIQAISTEKADAVTLDGGLVYDAGLDPYKLRPIAAEVYGTENNPQTHYYAVAIAKKGTNFQLNQLQGLKSCHTGLGRSAGWNIPMGLLRPFLDWTGPPEPLQKAVAKFFSASCVPCVDGKEYPNLCQLCAGTGENKCACSSQEPYFGYSGAFKCLQDGAGDVAFVKDSTVFESLPAKADRDQYELLCPNNTRKPVDAFQECHLARVPSHAVVARSVNGKEDLIWKLLVKAQEKFGRGKPSGFQLFGSPAGQKDLLFKDSALGLLRISSKIDSGLYLGSNYITAIRGLRETAAEVELRRAQVVWCAVGSDEQLKCQEWSRQSNQSVVCATASTTEDCIALVLKGEADALSLDGGYIYIAGKCGLVPVLAESQQSPESSGLDCVHRPVKGYLAVAVVRKANDKITWNSLRGKKSCHTAVDRTAGWNIPMGLLSKNTDSCRFDEFLSQSCAPGSDPRSKLCALCAGNEEGQNKCVPNSSERYYGYTGAFRCLAENVGDVAFVKDVTVLDNTDGKNTEQWAKDLKLGDFELLCLNGTRKPVTEAESCHLAVAPNHAVVSRIDKVAHLEQVLLRQQAHFGRNGRDCPGKFCLFQSKTKNLLFNDNTECLAKLQGKTTYEEYLGPQYVTAIAKLRRCSTSPLLEACAFLMR
inhibitory effect on HCV (HCV (genotype 4a)): higher than human, bovine and sheep lactoferrin
proliferation of HCT-116 [1]: inhibit the proliferation
DNA damage (DNA damage): inhibit
antioxidant activities (DNA damage): exhibits antioxidant activities
